# Measured values published in patent US7276363B2, “Nucleic acid molecules encoding red and green emitting luciferases” (Toyo Boseki Kabushiki Kaisha, priority 1998, dated 2007).
# B1: Phrixothrix vivianii green light-emitting luciferase PvGR, recombinant, wild type, SEQ ID NO: 2 (Phrixothrix vivianii) (protein)
# chain: MEEENIRHGERPRDIVHPGSAGQQLYQSLYKFASFPEAIIDAHTNEVISYAQIFETSCRLAVSIEQYGLNENNVVGVCSENNINFFNPVLAALYLGIPVATSNDMYTDGELTGHLNISKPTIMFSSKKALPLILRVQQNLSFIKKVVVIDSMYDINGVECVSTFVARYTDHTFDPLSFTPKDFDPLEKIALIMSSSGTTGLPKGVVLSHRSLTIRFVHSRDPIYGTRTVPQTSILSLVPFHHAFGMFTTLSYFVVGLKVVMLKKFEGALFLKTIQNYKIPTIVVAPPVMVFLAKSPLVDQYDLSSLTEVATGGAPLGKDVAEAVAKRLKLPGIIQGYGLTETCCAVMITPHNAVKTGSTGRPLPYIKAKVLDNATGKALGPGERGEICFQSEMIMKGYYNNPEATIDTIDKDGWLHSGDIGYYDEDGNFFIVDRLKELIKYKGYQVAPAELENLLLQHPSIADAGVTGVPDEFGGQLPAACVVLESGKTLTEKEVQDFIAAQVTPTKHLRGGVVFVDSIPKGPTGKLIRKELREIFAQRAPKSKL
# B2: Phrixothrix hirtus red light-emitting luciferase PhRE, recombinant, wild type, SEQ ID NO: 4 (Phrixothrix hirtus) (protein)
# chain: MEEENIVNGDRPRDLVFPGTAGLQLYQSLYKYSYITDGIIDAHTNEVISYAQIFETSCRLAVSLEKYGLDHNNVVAICSENNIHFFGPLIAALYQGIPMATSNDMYTEREMIGHLNISKPCLMFCSKKSLPFILKVQKHLDFLKKVIVIDSMYDINGVECVFSFVSRYTDHAFDPVKFNPKEFDPLERTALIMTSSGTTGLPKGVVISHRSITIRFVHSSDPIYGTRIAPDTSILAIAPFHHAFGLFTALAYFPVGLKIVMVKKFEGEFFLKTIQNYKIASIVVPPPIMVYLAKSPLVDEYNLSSLTEIACGGSPLGRDIADKVAKRLKVHGILQGYGLTETCSALILSPNDRELKKGAIGTPMPYVQVKVIDINTGKALGPREKGEICFKSQMLMKGYHNNPQATRDALDKDGWLHTGDLGYYDEDRFIYVVDRLKELIKYKGYQVAPAELENLLLQHPNISDAGVIGIPDEFAGQLPSACVVLEPGKTMTEKEVQDYIAELVTTTKHLRGGVVFIDSIPKGPTGKLMRNELRAIFAREQAKSKL
# B3: PhRE: recombinant red light-emitting luciferase of Phrixothrix hirtus head lanterns, 546 amino acid residues (protein, listed as Phrixothrix hirtus)
# chain: MEEENVVNGDRPRDLVFPGTAGLQLYQSLYKYSYITDGIIDAHTNEVISYAQIFETSCRLAVSLEKYGLDHNNVVAICSENNIHFFGPLIAALYQGIPMATSNDMYTEREMIGHLNISKPCLMFCSKKSLPFILKVQKHLDFLKRVIVIDSMYDINGVECVFSFDSRNTDHAFDPVKFNPKEFDPLERTALIMTSSGTTGLPKGVVISHRSITIRFVHSSDPIYGTRIAPDTSILAIAPFHHAFGLFTALAYFPVGLKIVMVKKFEGEFFLKTIQNYKIASIVVPPPIMVYLAKSPLVDEYNCSSLTEIASGGSPLGRDIADKVAKRLKVHGILQGYGLTETCSALILSPNDRELKKGAIGTPMPYVQVKVIDINTGKALGPREKGEICFKSQMLMKGYHNNPQATRDALDKDGWLHTGDLGYYDEDRFIYVVDRLKELIKYKGYQVAPAELENLLLQHPNISDAGVIEFRTNLLVNYLSACVVLEPGKTMTEKEVQDYIAELVTTTKHLRGGVVFIDSIPKGPTGKLMRNELRAIFAREQAKSKL
# What was measured:
# [1] = substrate: O=C(O)[C@H]1CSC(c2nc3ccc(O)cc3s2)=N1; experiment: purified protein, by the assay type; details: other: ammonium sulfate fractionated extract, luciferin 0.03-2 mM, 4 mM ATP solution, 8 mM MgSO4, 0.1 M Tris-HCl, pH 8.0, 25° C.
# [2] = Luciferase assays: luminometer light output and time course; assay type: biochemical; details: for total light output: in vivo and in vitro assays of IPTG-induced colonies, corrected for spectral photosensitivity
# Description: The activity levels were measured using a Luminescencer AB-2000 luminometer (Atto; Tokyo, Japan) by integration of total light emitted. The assay consisted of the addition of 50 μL of standard solution (2 mM ATP, 0.5 mM D-luciferin, 4 mM MgSO4 in 0.1 M Tris-HCl buffer, pH 8.0) to 10 μL of luciferase-containing extracts at 25° C. In vivo light intensities were measured after adding 50 μL of 0.5 mM D-luciferin in 0.1 M sodium citrate buffer pH 5.0 to 10 μL of bacterial suspension into a microtiter plate.
# [3] = substrate: Nc1ncnc2c1ncn2[C@@H]1O[C@H](COP(=O)(O)OP(=O)(O)OP(=O)(O)O)[C@@H](O)[C@H]1O; experiment: KM determination, PvGR luciferase (light intensity in luminometer, Lineweaver-Burk plots); assay type: biochemical, Phrixothrix vivianii; details: other: ammonium sulfate fractionated extract, ATP 0.1-4 mM, 0.5 mM luciferin solution, 8 mM MgSO4, 0.1 M Tris-HCl, pH 8.0, 25° C.
# Description: (§1) Liquid cultures of SOLR cells carrying luciferase insert containing pBl were grown on LB/amp (50 μg/mL) medium at 37° C. with shaking overnight. The preculture (1/100 vol) was then inoculated in LB/amp (50 μg/mL) in the presence of 1 mM IPTG and incubated at 23° C. during 24 h (OD600=1.8). The cells were harvested by centrifugation at 3000 rpm during 10 min at 4° C., and the pellet was resuspended in cold extraction buffer (0.1 M sodium phosphate buffer, pH 7.5, containing 2 mM EDTA, 1 mM DTT, and 1% Triton X-100). Lysozyme was added to the final concentration of 1 mg/mL and the suspension incubated 15 min at 0° C. and frozen at −80° C. during 15 min. The lysate was centrifuged at 12000 g at 4° C. during 15 min. The supernatant was then fractionated with ammonium sulfate. The fraction precipitated between 55% and 70% saturation was dissolved in cold extraction buffer and stored at −20° C. in the presence of glycerol 15%, to maintain the activity.
# (§2) Measurements of light intensities for KM determinations were made using the luminometer described above. […] The assays were carried out at 25° C. Each point of the Michaelis-Menten curve was assayed in quadruplicate. The KM values were estimated by Lineweaver-Burk plots of the reciprocal of light intensities versus […].
# [4] = substrate: Nc1ncnc2c1ncn2[C@@H]1O[C@H](COP(=O)(O)OP(=O)(O)OP(=O)(O)O)[C@@H](O)[C@H]1O; experiment: KM determination, PhRE luciferase (light intensity in luminometer, Lineweaver-Burk plots); assay type: biochemical, Phrixothrix hirtus; details: other: ammonium sulfate fractionated extract, ATP 0.1-4 mM, 0.5 mM luciferin solution, 8 mM MgSO4, 0.1 M Tris-HCl, pH 8.0, 25° C.
# Description: as §1, §2
Molecule,Km [1] [µM],total light output [2],Km [3] [µM],Km [4] [µM],"rise time to the peak of intensity and decay rate of in vitro bioluminescence reaction ([2]; compared with PvGR, results not shown)"
B1,150,nearly the same values,350,,
B2,20,,,240,
B3,,nearly the same values,,,faster
